Test results: article PMC3392526
Like-named read-outs stand apart in the source and are kept apart here.

Experiments:
Experiment in all cases: crystal structure
[1] = molecular target: T1, ALKBH2-dN55 crosslinking mutant (Homo sapiens, UniProt Q6NS38 56-261, C67S;C165S;G169C;C192S)
T1 sequence: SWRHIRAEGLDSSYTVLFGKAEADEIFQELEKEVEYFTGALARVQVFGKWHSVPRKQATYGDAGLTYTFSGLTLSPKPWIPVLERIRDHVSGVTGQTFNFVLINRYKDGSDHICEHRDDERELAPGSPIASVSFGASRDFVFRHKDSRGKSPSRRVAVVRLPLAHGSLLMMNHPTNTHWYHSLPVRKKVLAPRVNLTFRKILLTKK

[2] = molecular target: T1, ALKBH2-dN55 crosslinking mutant; remark: listed apart in the source
[3] = molecular target: T1, ALKBH2-dN55 crosslinking mutant; remark: listed apart in the source
[4] = molecular target: T1, ALKBH2-dN55 crosslinking mutant; remark: listed apart in the source

B1: CI DNA (dsDNA)
DNA 1: ATGTATCACTGCG
DNA 2: TCGCAGTGATACA
modifications: C* (position 9 of strand 1): disulfide crosslinking cytosine; strand 2 position 8 is inosine (written G)
binding result [1]: binds

B2: CG DNA (dsDNA)
DNA 1: CTGTCATCACTGCG
DNA 2: TCGCAGTGATGACA
modifications: C* (position 10 of strand 1): disulfide crosslinking cytosine
binding result [2]: binds

B3: AT DNA (dsDNA)
DNA 1: ATGTATAACTGCG
DNA 2: TCGCAGTTATACA
modifications: C* (position 9 of strand 1): disulfide crosslinking cytosine
binding result [3]: binds

B4: 3-meC DNA (dsDNA)
DNA 1: CTGTCTCACTGCG
DNA 2: TCGCAGTGAGACA
modifications: 3-methylcytosine at position 7 of strand 1 (written C); C* (position 9): disulfide crosslinking cytosine
binding result [4]: binds

B5: eA DNA (dsDNA)
DNA 1: CTGTCAAACTGCG
DNA 2: TCGCAGTTAGACA
modifications: 1,N6-ethenoadenine at position 7 of strand 1 (written A); no C* printed in this strand
binding result [4]: binds
